# Patent US20190194300A1
# Where a chain is given by its changes, count along the chain named.
# B1: wild type anti-AIP2 antibody E7 (antibody, V domains shown)
# VH: EVQLVQSGAEVKKPGASVRVSCKTSGYSFTSYDINWVRQTTGQGLEWMGWVNPTSGSTGYAQKFQGRVTMTANTAINTAYMELRDLRSEDTAVYFCVRDVPFDPWGQGTLVTVSS
# VL: QSVLTQPASVSGSPGQSITISCTGTSSDVGKYTFVSWYQQHPGKAPKVMVYEVNKRPLGVSPRFSGSKSGNTAYLTISGLQAEDEADYYCSSYTSSSTVVFGGGTKLTVL
# B2: variant anti-AIP2 antibody X12 (antibody, V domains shown)
# VH: B1 VH with E1Q, S31V, F102V, L110T
# VL: B1 VL with T33L
# B3: variant anti-AIP2 antibody X18 (antibody, V domains shown)
# VH: B1 VH with F29G, F102V
# VL: B1 VL with T94A
# Target: Staphylococcus aureus autoinducing peptide-2 (AIP2) (Staphylococcus aureus)
# Test: SPR, BiaCore T200
Binder,Ka,Kd,koff,kon
B1,1.85e+07 M⁻¹,0.0539 µM,0.027 s⁻¹,501000 M⁻¹ s⁻¹
B2,1.54e+07 M⁻¹,0.0649 µM,0.012 s⁻¹,186000 M⁻¹ s⁻¹
B3,2.85e+07 M⁻¹,0.035 µM,0.02 s⁻¹,570000 M⁻¹ s⁻¹
